The supplement of paper PMC9170038

Tested on: MS2 coat protein
Assay: apparent KD of MS2 coat protein; designed switch direction (-1 OFF switch, 1 ON switch): 1; higher = weaker reporter binding
Method in brief: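 On Illumina chips, designed RNA switches with common flanks were made by stalled E. coli RNA polymerase. Titrations with SNAP-549-labelled MS2 coat protein, doubling from 0.7 or 1.5 nM to 3 µM, were done with no input, with 200 uM small-molecule ligand, or with an oligonucleotide input. Apparent KD is the median per design over clusters, from curve fits of normalised cluster fluorescence.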

[1] = Eterna round: R95, input ligand: FMN 200 uM
[2] = Eterna round: R95, input ligand: microRNA oligo, concentration not stated
[3] = Eterna round: R95, input ligand: none
[4] = input ligand: microRNA oligo, concentration not stated

| Sequence | apparent KD of MS2 coat protein [1] | apparent KD of MS2 coat protein [2] | apparent KD of MS2 coat protein [3] | apparent KD of MS2 coat protein (input ligand: FMN 200 uM) | apparent KD of MS2 coat protein [4] | apparent KD of MS2 coat protein (input ligand: none) |
| --- | --- | --- | --- | --- | --- | --- |
| UGUCCAGCCUGAGCUGGACAAAAGCAUGUACAUGAGGAUCACCCAUGUUCAUGUACAAGCUUUUUGCUCGUCUUAGA [salish99_208a_r3_064] (puzzle: Sensor for hsa-mir-208a) | 480 nM | 15.8 nM | 587 nM | – | – | – |
| CCGGUUAAUGGAGGAUAUGGAGCCUUAUUGGCUCCAGAAGGCUAAACAUGAGGAUCACCCAUGUUACCGGCGGUCAAUAGACCG [Eli NG1ss - 61] (Eterna round: R96, puzzle: Same State NG 1) | – | – | – | 11.5 nM | 18 nM | 23 nM |
| UCAAGAUCGCGAGGAUAUCGCGAGGAUCACCCGUGAGAAGGCGCAGAGCCGAGGAUCACCCGGCUGAUCCUGAGGAGGAGGUAA (Eterna round: R96, puzzle: Same State NG 1) | – | – | – | 139 nM | 234 nM | 420 nM |
| UGUAAACAUGAGGAUCACCCAUGUAAUAUAAUGGGAGGAUAUCUGAAUUAAUUAAAUUAAGGAGAAGGCCUAAUGU [Mat - Same State 1 - Mod of Eli - D47] (puzzle: Same State 1) | 53.2 nM | 288 nM | 482 nM | – | – | – |
| AAGAAUCUAUCUCAGGAUAUCAUGUCAAAGACAUGAGGAUCACCCAUGUACCAGGAAACUGGUUAUGAGAAGGGAGAUAGAUUCU [Mat - Same State 2 - Mod - D32] (puzzle: Same State 2) | 99.4 nM | 30.6 nM | 282 nM | – | – | – |
| GGUAGGUUACUACCAAACAUGAGGAUCACCCAUGUAAGUGGGAAGGAUAUGGUACCUAAAAGGUACCAGAAGGUCCAAUUAAUU [Mat - Same State NG 3 - JL Mod - D98] (Eterna round: R96, puzzle: Same State NG 3) | – | – | – | 188 nM | 436 nM | 584 nM |
| UCUUGGUUUUUGCUCGUUUUUUGUGUUGAACAUGAGGAUCACCCAUGUAUUGUACGAUCCGAUUUAAUAAUGGUCCG [JMF 62] (puzzle: Sensor for hsa-mir-208a) | 63.2 nM | 55.7 nM | 83.1 nM | – | – | – |
| AUAGUUGCCGAAGGAUAUGAUGAGGAUCACCCAUCAGAAGGUUGGCUAUUGGGUGGACAUGAGGAUCACCCGUGUUCUUUGGUA (Eterna round: R96, puzzle: Same State NG 1) | – | – | – | 50.3 nM | 47.5 nM | 82.1 nM |
| UGAACCGUCACAGGAUAUCAUGCGAAAAUUGCGUGAGAAGGGUGGAUGUUGUGCUCAAAGUUCUACAUGAGGAUCACCCAUGUU [SameState NG1 #44] (Eterna round: R96, puzzle: Same State NG 1) | – | – | – | 61.9 nM | 33.5 nM | 60.5 nM |
| AUAGUUGCCGAAGGAUAUGAUGAGGAUCACCCAUCAGAAGGUCGGCUAUUGGGUGGACAUGAGGAUCACCCGUGUUCUUUGGUC (Eterna round: R96, puzzle: Same State NG 1) | – | – | – | 30.6 nM | 22.5 nM | 32.3 nM |
| GUGGUCAGACAUGAGGAUCACCCAUGUGGAAUAAAUAACACACAGGAUAUGUAAUAUAAAAUAUAACAGAAGGGUGGAUUGGUG (Eterna round: R96, puzzle: Same State NG 3) | – | – | – | – | 213 nM | – |
| AGUGGAGCCUGAGCUCCACAAAAGCAUGUACAUGAGGAUCACCCAUGUCAUGUACAAGCUUUUUGCUCGUCUUAAAA [Mat - hsa-mir-208a - Mod of JL - D18] (puzzle: Sensor for hsa-mir-208a) | 536 nM | 18.8 nM | 423 nM | – | – | – |
| AUAUGAGAAGCAGGAUAUGCGGAGAAGAAAGAAGCAGAAGGGCUUAUGGGACAACAUGAGGAUCACCCAUGUUCUCUGUGAUGA [AK SSNG1-V2-3] (Eterna round: R96, puzzle: Same State NG 1) | – | – | – | 24.3 nM | 48.9 nM | 56.5 nM |
| GGGCAGAGGGACAAGGAUAUGUCAGGAGAGACAUGAGGAUCACCCAUGUGGAGGUUGGAGCAGAGACAGAAGGUGUACGGAGCGA [JR_SS2_Sub011] (puzzle: Same State 2) | 34.4 nM | 105 nM | 107 nM | – | – | – |
| GCUCGACGUAUUGUCUACAUGAGGAUCACCCAUGUAGGUGCGAAGGAUAUCUACGUGUUUCAUGUAGAGAAGGUCGUGUCGAGC [SameState NG3 #93] (Eterna round: R96, puzzle: Same State NG 3) | – | – | – | 36.3 nM | 35.1 nM | 46.4 nM |
